Laboratory results taken from patent US20060234926.

Target: beta2-microglobulin, native monomer (UniProt P61769)
Assay: SPR
Details: at 0.5 uM RNA; 317 nM at 0.1 uM RNA; TMGA buffer pH 3.6

Sequence of beta2-microglobulin, native monomer (P61769 21-119): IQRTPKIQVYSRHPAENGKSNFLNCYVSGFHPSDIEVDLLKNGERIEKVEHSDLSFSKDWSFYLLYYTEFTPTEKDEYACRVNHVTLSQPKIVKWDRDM

GGCNUGACANGGCAGGAUAGCCGGNCNANGCGANCNNUNGGNCCNCGANACCCGACNGUGG [N4]
Kd: 104 nM
